Measured values taken from article PMC4357730.

Experiments:
hTDG-N140A (human) = experiment: AFM; settings: AFM: 25 mM HEPES pH 7.5, 25 mM Na acetate, 10 mM Mg acetate, RT, 2-AP hTDG: 20 mM HEPES pH 7.0, 0.2 mM EDTA, 2.5 mM MgCl2, 100 mM NaCl, 25 C, 2-AP hOGG1: 50 mM …, scale: specificity S
hTDG-R275A R275A (human) = hTDG-R275A R275A (human) (UniProt Q13569); experiment: AFM; settings: dUF at insert position 9 opposite G (non-cleavable G:U analog); AFM: 25 mM HEPES pH 7.5, 25 mM Na acetate, 10 mM Mg acetate, RT; 2-AP hTDG: 20 mM HEPES pH 7.0, 0.2 mM EDTA, 2.5 mM MgCl2, 100 mM NaCl, 25 C; 2-AP hOGG1: 50 mM …; scale: specificity S
Chain of hTDG-R275A R275A (human) (Q13569 whole entry R275A): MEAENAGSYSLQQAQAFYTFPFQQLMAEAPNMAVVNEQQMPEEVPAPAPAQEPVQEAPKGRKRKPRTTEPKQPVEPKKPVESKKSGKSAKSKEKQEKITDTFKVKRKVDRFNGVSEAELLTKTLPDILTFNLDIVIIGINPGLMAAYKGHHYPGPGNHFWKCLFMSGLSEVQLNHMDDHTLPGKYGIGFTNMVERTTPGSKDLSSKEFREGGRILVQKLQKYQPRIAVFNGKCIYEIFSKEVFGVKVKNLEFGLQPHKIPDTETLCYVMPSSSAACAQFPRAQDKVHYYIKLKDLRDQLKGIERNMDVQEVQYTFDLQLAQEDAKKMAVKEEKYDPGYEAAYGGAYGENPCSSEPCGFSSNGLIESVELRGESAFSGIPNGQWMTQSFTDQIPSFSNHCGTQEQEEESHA

549 bp G:T DNA
binding signal (hTDG-N140A (human)): 305

549 bp G:U DNA
binding signal (hTDG-N140A (human); dU at insert position 9 opposite G): 163

549 bp G:UF DNA
binding signal (hTDG-R275A R275A (human)): 358
